What was measured:
[1] = target: HA of A/HongKong/156/97 (H5N1, clade 0) (influenza A virus A/HongKong/156/97 (H5N1)) (UniProt O56140)
[2] = target: HA of A/HongKong/156/97 (H5N1, clade 0) (influenza A virus A/HongKong/156/97 (H5N1)), O56140
[3] = target: HA of the H5N1 viruses
[4] = target: HA of A/VietNam/1194/04 (H5N1, clade 1) (influenza A virus A/VietNam/1194/04 (H5N1))
[5] = target: HA of A/Indonesia/5/05 (H5N1, clade 2.1) (influenza A virus A/Indonesia/5/05 (H5N1))

RpSP-D trimers (from UniProt Q9N1X4 21-378) (natural protein)
HI assay: minimal inhibitory concentration of RpSP-D trimers; failed to inhibit [1]: > 4500 ng/100 µl

B1: recombinant porcine SP-D, Q9N1X4 21-378 (natural protein)
chain: AEMKTYSQRAVANACALVMCSPMENGLPGRDGRDGREGPRGEKGDPGLPGAVGRAGMPGLAGPVGPKGDNGSTGEPGAKGDIGPCGPPGPPGIPGPAGKEGPSGQQGNIGPPGTPGPKGETGPKGEVGALGMQGSTGARGPAGLKGERGAPGERGAPGSAGAAGPAGATGPQGPSGARGPPGLKGDRGPPGERGAKGESGLPGITALRQQVETLQGQVQRLQKAFSQYKKVELFPNGRGVGEKIFKTGGFEKTFQDAQQVCTQAGGQMASPRSETENEALSQLVTAQNKAAFLSMTDIKTEGNFTYPTGEPLVYANWAPGEPNNNGGSSGAENCVEIFPNGKWNDKACGELRLVICEF
HI assay: concentration of RpSP-D required to prevent hemagglutination [2]: 4500 ng/100 µl

B2: RpSP-D multimers (natural protein)
chain: B1 chain
HI assay: minimal inhibitory concentration of RpSP-D multimers [3]: 1400 ng/100 µl

B3: RpSP-D trimers (natural protein)
chain: B1 chain
HI assay: minimal inhibitory concentration of RpSP-D trimers; failed to inhibit [4]: > 4500 ng/100 µl
HI assay: minimal inhibitory concentration of RpSP-D trimers; failed to inhibit [5]: > 4500 ng/100 µl

Source: article PMC3173486
